Experimental data as given in publication PMC11550248.

Biological target: voltage-dependent anion-selective channel 1 (VDAC1), purified from rat liver mitochondria (rat) (UniProt Q9Z2L0)
Assay: MST; VDAC1 (138 nM) or MAVS (105 nM) fluorescently labeled and kept constant, tested protein at different concentrations; 20mM Tris-HCl, 200mM NaCl, pH 8; 30 min at 37°C in the dark; Monolith NT.115, LED 20%, IR laser 80%

Substance: SARS-CoV-2 small envelope E-protein, purified (from UniProt P0DTC4 1-75) (natural protein)
- C50 (half maximal binding): 1100 nM
